Test results published in patent US7374920B2, “Ginkgo biloba levopimaradiene synthase” (priority 2001, dated 2008).
“Also recorded” adds a separate entry of the source.

B1: Ser^61: Ginkgo biloba levopimaradiene synthase truncated at Ala^60-Ser^61; amino acid sequence SEQ.ID.NO:35 (protein, listed as Ginkgo biloba)
chain: MSAAETRPDQLPQEERFVSRLNADYHPAVWKDDFIDSLTSPNSHATSKSSVDETINKRIQTLVKEIQCMFQSMGDGETNPSAYDTAWVARIPSIDGSGAPQFPQTLQWILNNQLPDGSWGEECIFLAYDRVLNTLACLLTLKIWNKGDIQVQKGVEFVRKHMEEMKDEADNHRPSGFEVVFPAMLDEAKSLGLDLPYHLPFISQIHQKRQKKLQKIPLNVLHNHQTALLYSLEGLQDVVDWQEITNLQSRDGSFLSSPASTACVFMHTQNKRCLHFLNFVLSKFGDYVPCHYPLDLFERLWAVDTVERLGIDRYFKKEIKESLDYVYRYWDAERGVGWARCNPIPDVDDTAMGLRILRLHGYNVSSDVLENFRDEKGDFFCFAGQTQIGVTDNLNLYRCSQVCFPGEKIMEEAKTFTTNHLQNALAKNNAFDKWAVKKDLPGEVEYAIKYPWHRSMPRLEARSYIEQFGSNDVWLGKTVYKMLYVSNEKYLELAKLDFNMVQALHQKETQHIVSWWRESGFNDLTFTRQRPVEMYFSVAVSMFEPEFAACRIAYAKTSCLAVILDDLYDTHGSLDDLKLFSEAVRRWDISVLDSVRDNQLKVCFLGLYNTVNGFGKDGLKEQGRDVLGYLRKVWEGLLASYTKEAEWSAAKYVPTFNEYVENAKVSIALATVVLNSIFFTGELLPDYILQQVDLRSKFLHLVSLTGRLINDTKTYQAERNRGELVSSVQCYMRENPECTEEEALSHVYGIIDNALKELNWELANPASNAPLCVRRLLFNTARVMQLFYMYRDGFGISDKEMKDHVSRTLFDPVA
B2: Ala^2 (protein, listed as Ginkgo biloba)
chain: MAGVLFANLPCSLQLSPKVPFRQSTNILIPFHKRSSFGFNAQHCVRSHLRLRWNCVGIHASAAETRPDQLPQEERFVSRLNADYHPAVWKDDFIDSLTSPNSHATSKSSVDETINKRIQTLVKEIQCMFQSMGDGETNPSAYDTAWVARIPSIDGSGAPQFPQTLQWILNNQLPDGSWGEECIFLAYDRVLNTLACLLTLKIWNKGDIQVQKGVEFVRKHMEEMKDEADNHRPSGFEVVFPAMLDEAKSLGLDLPYHLPFISQIHQKRQKKLQKIPLNVLHNHQTALLYSLEGLQDVVDWQEITNLQSRDGSFLSSPASTACVFMHTQNKRCLHFLNFVLSKFGDYVPCHYPLDLFERLWAVDTVERLGIDRYFKKEIKESLDYVYRYWDAERGVGWARCNPIPDVDDTAMGLRILRLHGYNVSSDVLENFRDEKGDFFCFAGQTQIGVTDNLNLYRCSQVCFPGEKIMEEAKTFTTNHLQNALAKNNAFDKWAVKKDLPGEVEYAIKYPWHRSMPRLEARSYIEQFGSNDVWLGKTVYKMLYVSNEKYLELAKLDFNMVQALHQKETQHIVSWWRESGFNDLTFTRQRPVEMYFSVAVSMFEPEFAACRIAYAKTSCLAVILDDLYDTHGSLDDLKLFSEAVRRWDISVLDSVRDNQLKVCFLGLYNTVNGFGKDGLKEQGRDVLGYLRKVWEGLLASYTKEAEWSAAKYVPTFNEYVENAKVSIALATVVLNSIFFTGELLPDYILQQVDLRSKFLHLVSLTGRLINDTKTYQAERNRGELVSSVQCYMRENPECTEEEALSHVYGIIDNALKELNWELANPASNAPLCVRRLLFNTARVMQLFYMYRDGFGISDKEMKDHVSRTLFDPVA

Key:
[1] = in vitro enzymatic assay of levopimaradiene synthase constructs expressed in E. coli BL21(DE3); format: biochemical, Escherichia coli; conditions: for diterpene product on bacterial expression: E. coli BL21(DE3), soluble lysate fraction, 20 μM GGDP, overnight at 32° C., GC and GC/MS
Description: The desired plasmids were prepared by ligating the mutated gene insert into the similarly digested vectors pET32c(+) (Novagen; Madison, Wis.) and pRS426GAL (Hua, 2000), a multiple copy yeast expression vector. These plasmids was expressed in E. coli BL21(DE3) (Novagen; Madison, Wis.). E. coli cells were grown in Luria-Bertani medium supplemented with 100 μg/mL ampicillin at 37° C. with shaking to OD600 ˜0.6. The following parameters were tested: isopropyl 1-thio-β-D-galactopyranoside (IPTG) concentration (50, 100, 250, 500, and 1000 μM); and temperature and time (20° C. for 2, 3, 4, 6, 21 hours, 22° C. for 6, 8, 16, 19, 22, 45 hours, and 30° C. for 3, 6 hours). The following assay conditions were tested to obtain maximum diterpene product yield: 30 mM HEPES (N-2-hydroxyethylpiperazine-N′-[…]), pH 6.9, 7.2, 7.6, 8.0; 30 mM Tris (tris(hydroxymethyl)aminomethane hydrochloride), pH 7.4, 7.8, 8.2; 1, 5, 10% glycerol; 1, 3, 5, 10, 20 mM DTT (dithiothreitol); 20 mM β-mercaptoethanol; 2, 5, 8% Triton X-100; 5% Tween 80; 0, 2, 7.5, 20, 50 mM MgCl2; 0, 30, 500, 1000 μM MnCl2; 2, 10, 13.3, 20, 40, 80, 200 μM GGDP; and 23° C. and 32° C. assay temperatures.
Optimal soluble protein production and diterpene yield were obtained with the following conditions. Cell cultures were induced with 1 mM IPTG at 20° C. with shaking for 6 hours and lysed by sonication in 30 mM HEPES, pH 7.2, 5 mM DTT, and 5% glycerol. The soluble fraction of the lysate (100 mg/mL) was incubated with 20 μM GGDP in 30 mM HEPES, pH 7.2, 5 mM DTT, 5% glycerol, 2 mM MgCl2, and 500 μM MnCl2 overnight at 32° C.
(§1) All in vitro reactions were extracted 3× with hexane and dried over MgSO4. The reaction was further extracted twice with diethyl ether and dried over MgSO4. Thereafter, the crude lysate was suspended in 100 mM Tris, pH 8.0 containing 2.9 units/mg apyrase (a dephosphorylating agent) and 10 units/μL calf intestinal alkaline phosphatase, incubated at 30° C. for 3 hours, and extracted with diethyl ether as noted above (Croteau and Cane, 1985). The crude reaction mixtures were eluted over SiO2, concentrated, and analyzed by GC and GC/MS.
(§2) Gas chromatography spectra were obtained on a Hewlett Packard 6890 Series GC System equipped with an Rtx-5 capillary column (Restek, 30 m×0.25 mm i.d., 0.10 μm df). The following separation conditions and temperature program were employed: injector port 250° C., FID 250° C., split ratio 39:1, helium flow 20 cm/s (0.6 mL/min), 150° C. hold 5 min, increase to 250° C. (5° C./min), hold 5 min. GC/MS spectra were obtained on a Hewlett-Packard 5890A instrument with a 30-m DB-5 ms column (J&W Scientific Inc., 0.25 mm i.d., 0.10 μm df). The following separation conditions and temperature program were employed: injector port 280° C., transfer lines: 280° C., helium flow at 30 cm/s (1 mL/min) with splitless injection at 150° C. hold 3 min, increase to 250° C. (5° C./min), hold 5 min. Mass spectra (m/z 50 to 500) were obtained on a VG ZAB-HF reverse-geometry double-focusing instrument at 70 eV with an electron-impact ion source (200° C.). Accelerating voltage was set to 8 kV and the resolution was 1000 (10% valley).
The skilled artisan recognizes that lysis and assay conditions should be optimized. Examples of parameters that can be adjusted to optimize conditions include altering buffer, pH, reductant, reductant concentration, metal cofactors, cofactor concentrations, glycerol concentrations, substrate concentrations, and assay temperatures. […] Maximum soluble protein production and diterpene yield were obtained with the following conditions. Cell cultures were induced with 1 mM IPTG at 20° C. with shaking for 6 hours and lysed by sonication in 30 mM HEPES, pH 7.2, 5 mM DTT, and 5% glycerol. The soluble fraction of the lysate (100 mg/1 mL) was incubated with 20 μM GGDP in 30 mM HEPES, pH 7.2, 5 mM DTT, 5% glycerol, 2 mM MgCl2, and 500 μM MnCl2 overnight at 32° C. […]

[2] = in vitro assay of levopimaradiene synthase constructs expressed in wild-type S. cerevisiae JBY575; format: biochemical, Saccharomyces cerevisiae; conditions: wild-type S. cerevisiae JBY575, galactose 48 hours, lysate with GGDP
Description: Expression in S. cerevisiae JBY575, which represents wild-type yeast, was observed. JBY575 cells transformed with pRS426GAL inserted with the putative levopimaradiene synthase were grown in synthetic complete medium lacking uracil and supplemented with 2% glucose and 1.5% agar at 30° C. to saturation and induced with galactose for 48 hours. Cells were harvested, resuspended in lysis buffer, and mixed by vortexing over glass beads. The lysate was assayed with 60 μM GGDP in the presence and absence of 0.2% and 5% Triton X-100.
as §1, §2
The skilled artisan recognizes that lysis and assay conditions should be optimized. Examples of parameters that can be adjusted to optimize conditions include altering buffer, pH, reductant, reductant concentration, metal cofactors, cofactor concentrations, glycerol concentrations, substrate concentrations, and assay temperatures. […] Maximum soluble protein production and diterpene yield were obtained with the following conditions. Cell cultures were induced with 1 mM IPTG at 20° C. with shaking for 6 hours and lysed by sonication in 30 mM HEPES, pH 7.2, 5 mM DTT, and 5% glycerol. The soluble fraction of the lysate (100 mg/1 mL) was incubated with 20 μM GGDP in 30 mM HEPES, pH 7.2, 5 mM DTT, 5% glycerol, 2 mM MgCl2, and 500 μM MnCl2 overnight at 32° C. Yeast expression was induced with galactose at 30° C. for 48 hours and the cells were lysed and assayed according to the conditions noted.

Molecule | diterpene product on bacterial expression [1] | turnover of GGDP ([1]; bacterial expression, highest expression levels) | diterpene product on yeast expression [2] | diterpene product on bacterial expression ([1]; listed as full-length cDNA) | difference in activity between highest (Ser^61) and lowest (Ala^2) levels ([1]; bacterial expression) | diterpene product on yeast expression ([2]; listed as full-length)
B1 | produced levopimaradiene as the exclusive diterpene hydrocarbon; also recorded: provided enzymatic activity capable of cyclizing geranylgeranyl diphosphate to levopimaradiene | approximately 1% | yielded levopimaradiene as the sole diterpene; also recorded: yielded levopimaradiene synthase activity |  |  | 
B2 | produced levopimaradiene as the exclusive diterpene hydrocarbon |  | failed to produce observable levels of any diterpene product | provided enzymatic activity capable of cyclizing geranylgeranyl diphosphate to levopimaradiene | approximately 80% | failed to produce detectable levels of biosynthetic product
